Assay results reported in US20090255014A1 (HELMHOLTZ ZENTRUM F R INFEKTIONSFORSCHUNG, published 2009).

Target: T1, native Cpn10 of Oleispira antarctica (Oleispira antarctica, UniProt Q8KM31 1-97)
T1 construct: Co-chaperonin; also called co-chaperonin Cpn10; co-chaperonin
T1 sequence: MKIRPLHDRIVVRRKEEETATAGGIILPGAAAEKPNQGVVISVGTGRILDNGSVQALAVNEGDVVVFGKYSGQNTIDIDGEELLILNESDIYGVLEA
Experiment: conclusion from in vitro refolding of denatured mtMDH with Cpn10 and ATP
Source text: The behaviour of the stabilized single ring mutant led to the conclusion that at the low temperature, the co-chaperonin Cpn10 could bind even to the heptameric conformation, whereas at elevated temperature presumably Cpn10 could not be released from this heptameric single ring.

B1: stabilized single ring mutant Glu461Ala/Ser463Ala/Val464Ala of Cpn60 of O. antarctica (other)
chain: MAAKDVLFGDSARAKMLVGVNILADAVRVTLGPKGRNVVIEKSFGAPIITKDGVSVAREIELKDKFENMGAQMVKEVASQANDQAGDGTTTATVLAQAIISEGLKSVAAGMNPMDLKRGIDKATAAVVAAIKEQAQPCLDTKAIAQVGTISANADETVGRLIAEAMEKVGKEGVITVEEGKGLEDELDVVEGMQFDRGYLSPYFINNQEKMTVEMENPLILLVDKKIDNLQELLPILENVAKSGRPLLIVAEDVEGQALATLVVNNLRGTFKVAAVKAPGFGDRRKAMLQDLAILTGGQVISEELGMSLETADPSSLGTASKVVIDKENTVIVDGAGTEASVNTRVDQIRAEIESSTSDYDIEKLQERVAKLAGGVAVIKVGAGSEMEMKEKKDRVDDALHATRAAVEEGVVAGGGVALIRALSSVTVVGDNEDQNVGIALALRAMEAPIRQIAGNAGAAGAAVVDKVKSGTGSFGFNASTGEYGDMIAMGILDPAKVTRSSLQAAASIAGLMITTEAMVADAPVEEGAGGMPDMGGMGGMGGMPGMM
notes: also called triple mutant Glu461Ala/Ser463Ala/Val464Ala
binding result: binds
